± gives the standard deviation of the averaged measurements.
What was measured:
[1] = tested on: VchCAST RNA-guided transposition machinery (E. coli BL21(DE3) host, lacZ target); experiment: relative integration efficiency (T-RL orientation) vs wild-type transposon end (log2 (normalized fold change)); transposon end mutated: left end; higher = more efficient transposition
Summary of the method: (§1)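 Co-transformation of E. coli BL21(DE3) combined a pUC57 mini-transposon donor, holding barcoded pools of 1549 left-end or 1849 right-end variants, with a T7-driven plasmid encoding a CRISPR array, tniQ-cas8-cas7-cas6 and tnsA-tnsB-tnsC. After plating with 0.1 mM IPTG at 37°C for 18 h, input plasmids and genomic integration junctions were PCR-amplified and Illumina-sequenced across two biological output replicates, with four reference barcodes. Relative integration efficiency is the normalised, log-transformed output/input barcode fold change.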

[2] = tested on: VchCAST RNA-guided transposition machinery (E. coli BL21(DE3) host, lacZ target); experiment: relative integration efficiency (T-LR orientation) vs wild-type transposon end (log2 (normalized fold change)); transposon end mutated: left end; higher = more efficient transposition
Summary of the method: as §1

| Sequence | relative integration efficiency (log2) [1] | relative integration efficiency (log2) [2] |
| --- | --- | --- |
| AATGTTGTTGATGCAACCATAAAGTGATATTTGCTAGCATTGTACCTAGGACTGAGCTAGCCATAAACAACCATATATTGATATCTCACAAAACAACCATAAGTTGATATTTTTGTGAATCGAGTATTTCAGCAAAACTACTGCAGTAAGAA | -3.5 ± 0.79 | -4.41 ± 1.3 |
| TTTTGTGTTGATGCAACCATAAAGTGATAACAACGAATCAATTAAAATCATAGGCTTAATCGAAAAACAACCATATCTTGATATCGCATAAAACAACCATAAGTTGATATTTTGGTGAAAAGGATATTCCAACCTTCATAGTTTAGTAAGAA | -0.528 ± 0.32 | -0.426 ± 0.46 |
| AATGTTGTTGATGCAACCATAAAGTGATATTTAATAATTATTTATAATCAGCAACTTAACCACAACAACCATATATTGATATCTCACAAAACAACCATAAGTTGATATTTTTGTGAATCGAGTATTTCAGCAAAACTACTGCAGTAAGAAAG | -2.31 ± 0.76 | -2.53 ± 1.4 |
| AATGTTGTTGATGCAACCATAAAGTGATATTTAATAATTATTTATAATCAGCAACTTAACCACAAAACAACCATAAAGTGATATTTAACAAAAGTTGGTATTCAACTATAAAATGTGAATCGAGTATTTCAGCAAAACTACTGCAGTAAGAA | -2.53 ± 1.4 | -0.811 ± 0.85 |
| AATGTTGTTGATGCAACCATAAAGTGATATTTAATAATTATTTATAATCAGCAACTTAACCACAAACAACCATATATTGATATCTCAACAAAACAACCATAAGTTGATATTTTTGTGAATCGAGTATTTCAGCAAAACTACTGCAGTAAGAA | -1.37 ± 0.49 | -1.17 ± 1.5 |
| AATGTTGTTGATGCACCCATAAATTGATATTGCATAATTATTTATAATCAGCAACTTAACCACAAAACAACCATAAAATGATAATTAACAAAAGTTGGTATTCAACTATAAAATGTGAATCGAGTATTTCAGCAAAACTACTGCAGTAAGAA | -3.11 ± 1.5 | -1.26 ± 0.57 |
| AATGTTGTTGATGCAACCATAAAGTGATATTTAATAATTATTTATAATCAGCAACTTCAACCATATATTGATATCTCACAAAACAACCATAAGTTGATATTTTAACCACAAAATGTGAATCGAGTATTTCAGCAAAACTACTGCAGTAAGAA | -0.834 ± 0.54 | -1.03 ± 0.79 |
| TTTTGTGTTGAAACAACCATAAAGTGATAACAACGAATCAATTAAAATCATAGGCTTAATCGAAAAACAACCATATATTGATATCTCATAAAACAACCATAAGTTGATATTTTGGTGAAAAGGATATTCCAACCTTCATAGTTTAGTAAGAA | 0.184 ± 0.29 | 0.0938 ± 0.43 |
| AATGTTGTTGATGCACCCATAAATTGATATTGCATAATTATTTATAATCAGCAACTTAACCACAAAACAACCATAAAGTGATATTTAACAAAAGTTGGTATTCAACTATAAAATGTGAATCGAGTATTTCAGCAAAACTACTGCAGTAAGAA | -3.26 ± 1 | -1.73 ± 0.93 |
| AATGTTGTTGATGCAACCATAAAGTGATATTTAATAATTATTTATAATCAGCAACTTAACCACAACCATATATTGATATCTCCAAAAACAAAACAACCATAAGTTGATATTTTTGTGAATCGAGTATTTCAGCAAAACTACTGCAGTAAGAA | -3.07 ± 1 | -2.36 ± 0.59 |
| AATGTTGTTGATGCAACCATAAAGTGATATTTAATAATTATTTATAATCAGCAACTTAACCACAAAAACCAACGCGCGGTCGCGAGAACAAAACAACCATAAGTTGATATTTTTGTGAATCGAGTATTTCAGCAAAACTACTGCAGTAAGAA | -3.6 ± 1.3 | -2.16 ± 0.37 |
| AATGTTGTTGATGCAACCATAAAGTGATATTTAATAATTATTTATAATCAGCAACTTAACCACAAAACAACCATATATTGATATCTCACAAAACACAACGCCTGGTCGCGGGGGTGTCCGATCTGATTTCAGCAAAACTACTGCAGTAAGAA | -2.63 ± 1.3 | -0.789 ± 1.1 |
| AATGTTGTTGATGCAACCATAAAGTGATATTTACCGACTGCCTGCCATCCGCCGCCGCACCGCAGCCCAACCATATATTGATATCTCACAAAACAACCATAAGTTGATATTTTTGTGAATCGAGTATTTCAGCAAAACTACTGCAGTAAGAA | -2.99 ± 0.89 | -3.03 ± 1.2 |
| AATGTTGTTGATGCAACCATAAAGTGATATTTAATAATTATTTATAATCAGCAACTTAACCACAAAACACCCATAAATTGATAATTAACAAAAGTTGGTATTCAACTATAAAATGTGAATCGAGTATTTCAGCAAAACTACTGCAGTAAGAA | -2.72 ± 0.87 | -1.11 ± 0.65 |
| AATGTTGTTGATGCAACCATAAAATGATAATTAATAATTATTTATAATCAGCAACTTAACCACAAAACACCCATAAATTGATATTGCACAAAAGTTGGTATTCAACTATAAAATGTGAATCGAGTATTTCAGCAAAACTACTGCAGTAAGAA | -3.1 ± 1.4 | -1.48 ± 0.57 |
| AATGTTGTTGATGCAACCATAAAGTGATATTTAATAACTTGGTATAGCATACATTATACGAACGGTACAACCATATATTGATATCTCACAAAACAACCATAAGTTGATATTTTTGTGAATCGAGTATTTCAGCAAAACTACTGCAGTAAGAA | -3.71 ± 1.4 | -4.2 ± 0.86 |
| AATGTTGTTGATGCAACCATAAAGTGATATTTAATAATTATTTATAATCAGCAACTTAACCACAAAATGTGAATCGAGTATTTCAGCAAAACTACTGCAGTACAACCATATATTGATATCTCACAAAACAACCATAAGTTGATATTTTAGAA | -6.01 ± 0.9 | -3.82 ± 1.3 |
| AATGTTGTTGATGCAACCATAAAGTGATATTTAATAATTATTTATAATCAGCAACTTAACCACAAAATGTGAATCGACAACCATATATTGATATCTCACAAAACAACCATAAGTTGATATTTTGTATTTCAGCAAAACTACTGCAGTAAGAA | -2.45 ± 0.87 | -3.12 ± 0.12 |
| AATGTTGTTGATGCAACCATAAAGTGATATTTAAAGTACAGCGCGACTGAACTCATCATTAAAACGACAACCATATATTGATATCTCACAAAACAACCATAAGTTGATATTTTTGTGAATCGAGTATTTCAGCAAAACTACTGCAGTAAGAA | -2.4 ± 1.2 | -0.487 ± 1.5 |
| AATGTTGTTGATGCACCCATAAATTGATATTGCATAATTATTTATAATCAGCAACTTAACCACAAAACACCCATAAATTGATATTGCACAAAAGTTGGTATTCAACTATAAAATGTGAATCGAGTATTTCAGCAAAACTACTGCAGTAAGAA | -4.32 ± 0.9 | -2.41 ± 2 |
| AATGTTGTTGATGCAACCATAAAGTGATATTTATAATTATTTATAATCAGCAACTTAACCACAAAACAACCATATATTGATATCTCACAAAACAACCATAAGTTGATATTTTTGTGAATCGAGTATTTCAGCAAAACTACTGCAGTAAGAAA | -0.877 ± 0.61 | -0.645 ± 0.95 |
| AATGTTGTTGATGCAACCATAAAGTGATATTTAATAATTATTTATAATCAGCAACTTAACCACAAAACAACCATATATTGATATCTCCACCCCACCAACGCCTGGTCGCGGGGGTGTCCGATCTGATTTCAGCAAAACTACTGCAGTAAGAA | -2.45 ± 0.85 | -0.685 ± 1.1 |

From the supplement of paper PMC10201428
